Experimental data as given in article PMC10070233 (Cellular and Molecular Life Sciences: CMLS, 2023).

How the values were obtained:
Assay in all cases: BLI; kinetics: FGFRs-Fc (25 μg/mL) immobilised on Protein-A sensors, galectins 0.2-6 μM; heterogeneous ligand (2:1) model
Settings in all cases: both partners purified
[1] = biological target: T1, extracellular region of FGFR1 fused to the Fc fragment of human IgG1 (human, UniProt P11362 22-376, N-glycosylated (eight N-glycosylation sites))
T1 construct: FGFR1, extracellular region with domains D1, D2 and D3; also called FGFR1-Fc; FGFR1.Fc; source: CHO cells, purified (Protein A Sepharose)
T1 sequence (looked up): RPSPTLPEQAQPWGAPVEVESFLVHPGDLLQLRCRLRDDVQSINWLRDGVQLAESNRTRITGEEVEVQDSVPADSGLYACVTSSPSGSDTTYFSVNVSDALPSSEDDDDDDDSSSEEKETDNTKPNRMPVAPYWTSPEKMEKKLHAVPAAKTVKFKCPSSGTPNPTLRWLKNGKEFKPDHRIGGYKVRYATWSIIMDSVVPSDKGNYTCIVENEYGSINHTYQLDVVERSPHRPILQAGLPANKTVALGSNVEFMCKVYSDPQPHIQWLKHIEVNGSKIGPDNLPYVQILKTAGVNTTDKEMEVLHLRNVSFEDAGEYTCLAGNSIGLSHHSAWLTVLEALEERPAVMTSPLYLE

[2] = biological target: T2, extracellular region of FGFR2 fused to the Fc fragment of human IgG1 (human, UniProt P21802 22-377, N-glycosylated (eight putative N-glycosylation sites))
T2 construct: FGFR2, extracellular region; also called FGFR2-Fc; source: CHO cells, purified (Protein A Sepharose)
T2 sequence (P21802 22-377): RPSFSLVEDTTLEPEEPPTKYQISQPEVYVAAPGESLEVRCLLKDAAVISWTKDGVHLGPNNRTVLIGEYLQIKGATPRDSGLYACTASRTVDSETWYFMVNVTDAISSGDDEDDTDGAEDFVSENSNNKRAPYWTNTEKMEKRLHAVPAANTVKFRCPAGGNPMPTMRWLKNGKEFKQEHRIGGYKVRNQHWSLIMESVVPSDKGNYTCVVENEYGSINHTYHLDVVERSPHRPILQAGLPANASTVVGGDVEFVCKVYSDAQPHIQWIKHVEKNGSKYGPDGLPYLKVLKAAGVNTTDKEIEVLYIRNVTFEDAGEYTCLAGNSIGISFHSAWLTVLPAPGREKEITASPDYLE

[3] = biological target: T3, extracellular region of FGFR4 fused to the Fc fragment of human IgG1 (human, UniProt P22455 22-369, N-glycosylated (five putative N-glycosylation sites))
T3 construct: FGFR4, extracellular region; also called FGFR4-Fc; source: CHO cells, purified (Protein A Sepharose)
T3 sequence (looked up): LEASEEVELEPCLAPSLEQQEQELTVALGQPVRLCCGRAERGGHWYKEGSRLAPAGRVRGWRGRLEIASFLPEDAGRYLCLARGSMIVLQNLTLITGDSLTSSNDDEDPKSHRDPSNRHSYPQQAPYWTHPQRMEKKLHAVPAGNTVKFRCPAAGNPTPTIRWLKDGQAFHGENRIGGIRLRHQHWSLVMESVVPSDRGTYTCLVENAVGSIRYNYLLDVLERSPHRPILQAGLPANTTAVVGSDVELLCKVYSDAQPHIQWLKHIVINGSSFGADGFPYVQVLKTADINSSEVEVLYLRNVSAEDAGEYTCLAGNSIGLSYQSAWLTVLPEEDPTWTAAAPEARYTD

[4] = biological target: T4, extracellular region of FGFR3 fused to the Fc fragment of human IgG1 (human, UniProt P22607 23-375, N-glycosylated (six putative N-glycosylation sites))
T4 construct: FGFR3, extracellular region; also called FGFR3-Fc; source: CHO cells, purified (Protein A Sepharose)
T4 sequence (looked up): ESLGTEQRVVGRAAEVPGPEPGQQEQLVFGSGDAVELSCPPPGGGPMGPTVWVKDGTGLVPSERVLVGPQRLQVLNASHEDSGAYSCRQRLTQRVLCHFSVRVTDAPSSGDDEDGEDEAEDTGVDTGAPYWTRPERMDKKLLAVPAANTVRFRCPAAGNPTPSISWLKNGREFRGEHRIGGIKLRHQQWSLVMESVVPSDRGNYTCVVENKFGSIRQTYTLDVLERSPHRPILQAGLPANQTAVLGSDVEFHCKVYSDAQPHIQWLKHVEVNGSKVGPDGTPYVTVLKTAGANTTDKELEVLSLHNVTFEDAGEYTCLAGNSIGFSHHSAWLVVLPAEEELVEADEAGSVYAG

B1: galectin-8 (natural protein, human, UniProt O00214 1-317, looked up)
chain: MMLSLNNLQNIIYNPVIPFVGTIPDQLDPGTLIVIRGHVPSDADRFQVDLQNGSSMKPRADVAFHFNPRFKRAGCIVCNTLINEKWGREEITYDTPFKREKSFEIVIMVLKDKFQVAVNGKHTLLYGHRIGPEKIDTLGIYGKVNIHSIGFSFSSDLQSTQASSLELTEISRENVPKSGTPQLRLPFAARLNTPMGPGRTVVVKGEVNANAKSFNVDLLAGKSKDIALHLNPRLNIKAFVRNSFLQESWGEEERNITSFPFSPGMYFEMIIYCDVREFKVAVNGVHSLEYKHRFKELSSIDTLEINGDIHLLEVRSW
notes: galectin-8, human; the C-CRD construct ends at Trp317, which fits the form of 317 residues; also called gal-8; full-length galectin-8; source: E. coli BL21 CodonPlus(DE3)-RIL, purified (Ni-NTA); not shown: His tag, N-terminal, kept
KD1 [1]: 0.95 µM
KD2 [1]: 194 nM
Koff1 [1]: 0.0225 s⁻¹
Koff2 [1]: 0.000766 s⁻¹
Kon1 [1]: 25200 M⁻¹ s⁻¹
Kon2 [1]: 8820 M⁻¹ s⁻¹
KD1 [2]: 3.8 µM
KD2 [2]: 141 nM
Koff1 [2]: 0.0312 s⁻¹
Koff2 [2]: 0.00493 s⁻¹
Kon1 [2]: 13200 M⁻¹ s⁻¹
Kon2 [2]: 35100 M⁻¹ s⁻¹
KD1 [3]: 24.3 nM
KD2 [3]: 249 nM
Koff1 [3]: 0.000929 s⁻¹
Koff2 [3]: 0.0161 s⁻¹
Kon1 [3]: 38700 M⁻¹ s⁻¹
Kon2 [3]: 65100 M⁻¹ s⁻¹
KD1 [4]: 174 nM
KD2 [4]: 63 nM
Koff1 [4]: 0.0289 s⁻¹
Koff2 [4]: 0.000855 s⁻¹
Kon1 [4]: 167000 M⁻¹ s⁻¹
Kon2 [4]: 14500 M⁻¹ s⁻¹

B2: N-terminal carbohydrate recognition domain of galectin-8 fused to the AviTag (domain or fragment, human, UniProt O00214 1-152, looked up)
chain: MMLSLNNLQNIIYNPVIPFVGTIPDQLDPGTLIVIRGHVPSDADRFQVDLQNGSSMKPRADVAFHFNPRFKRAGCIVCNTLINEKWGREEITYDTPFKREKSFEIVIMVLKDKFQVAVNGKHTLLYGHRIGPEKIDTLGIYGKVNIHSIGFS
notes: galectin-8, human, N-CRD, residues Met1-Ser152; also called gal-8N-CRD; gal-8_(N-CRD); source: E. coli BL21(DE3) pLysS, purified (Ni-NTA); not shown: AviTag, C-terminal, kept
KD1 [1]: 2.6 µM
KD2 [1]: 17 nM
Koff1 [1]: 0.164 s⁻¹
Koff2 [1]: 0.000194 s⁻¹
Kon1 [1]: 165000 M⁻¹ s⁻¹
Kon2 [1]: 429000 M⁻¹ s⁻¹
